Data on 2 substances can be found in article PMC11093360.

The target of one assay is M2trunk(1–228) (human) (UniProt P08172).
Another assay has as its target M2trunk(1–283) (human) (UniProt P08172).

In the assay with M2trunk(1–228) (human), “M2tail(368–466) (from UniProt P08172 368-466) (domain or fragment)” registered a Bmax of [3H]NMS binding sites in COS-7 cells cotransfected with both fragments (M2trunk(1–228) alone: N.B.) of 70 fmol/mg and a Maximum inhibition of forskolin stimulated cAMP accumulation (%) by carbachol in COS-7 cells cotransfected with both fragments of 29%.
For the substance “M2tail(M-281-466) (from UniProt P08172 281-466) (domain or fragment)”, in the assay with M2trunk(1–283) (human), the Bmax of [3H]NMS binding sites in COS-7 cells cotransfected with both fragments (M2trunk(1–283) alone: N.B.) turned out to be 480 fmol/mg and the Maximum inhibition of forskolin stimulated cAMP accumulation (%) by carbachol in COS-7 cells cotransfected with both fragments stood at 37%.
